For series [1], the target named is T1, thrombin (IIa), active (UniProt P00734;P00734 P00734:328-363,P00734:364-622). As to the kind of experiment: inhibition; inhibition of coagulation.
Series [2] addresses T2, alpha-thrombin (active site blocked with fluorescein-PPACK) (Homo sapiens, UniProt P00734;P00734 P00734:328-363,P00734:364-622). As to the kind of experiment: fluorometric titration; duplicate measurement gave 99 nM; 20 mM Tris, 150 mM NaCl, pH 7.4.
Series [3] concerns the target T2, alpha-thrombin (active site blocked …). As to the kind of experiment: fluorometric titration, 492/522 nm, 100 nM thrombin, 20 mM Tris, 150 mM NaCl, pH 7.4; exosite 1.
Series [4] has the same target. As to the kind of experiment: fluorometric titration, 20 mM Tris, 150 mM NaCl, pH 7.4; exosite 2.
In series [5] the target is T1, thrombin (IIa), active. As to the kind of experiment: inhibition; kD in the hydrolysis of Chromozym-thrombin.
The target in series [6] is T2, alpha-thrombin (active site blocked …). As to the kind of experiment: fluorometric titration; duplicate measurement gave 110 nM; 20 mM Tris, 150 mM NaCl, pH 7.4.
The target is the same in series [7]. As to the kind of experiment: fluorometric titration, 20 mM Tris, 150 mM NaCl, pH 7.4; exosite 1.

GGTTGGTGTGGTTGG (ssDNA, 3'-biotin-streptavidin) [ODN 1f] yielded a Ki in series [1] of about 100 nM. The same molecule came in with a Kd in series [2] of 41 nM. In series [3], GGTTGGTGTGGTTGG (ssDNA) [ODN 1a] showed an equilibrium dissociation constant (Kd) of 45 nM. Regarding AGTCCGTGGTAGGGCAGGTTGGGGTGACT (ssDNA) [ODN 2a], the Kd in series [4] amounted to 16.5 nM. Take AGTCCGTGGTAGGGCAGGTTGGGGTGACT (ssDNA, 3'-biotin-streptavidin) [ODN 2f]: the figures for the Kd in series [5] and in series [6] were 10.2 nM and 89 nM, respectively. AGTCCGTGGTAGGGCAGGTTGGGGTGACT (ssDNA, 3'-biotin (biotin TEG)) [ODN 2e]: binding in series [4] was put at a Kd of 85 nM.

In series [7], GGTTGGTGTGGTTGG (ssDNA, 3'-biotin (biotin TEG)) [ODN 1e] returned a Kd of 55 nM.

As usually defined, the Ki is a dissociation constant, usually derived from enzyme kinetics or from competition with a known ligand. One may read the Kd as the equilibrium constant for the complex coming apart. A higher Kd goes with weaker binding.

Values taken from patent publication US6780850.
